{
  "source": "patent US20230406885A1",
  "about": "“CYCLIC PEPTIDES FOR TRAPPING INTERLEUKIN-1 BETA” (MERCK SHARP & DOHME LLC, priority 2022, published 2023)",
  "binders": {"B1": {"name": "SEQ ID NO: 35 (peptide)", "peptide": "cyclo([Bip(4'-COOH)]W[Phe(4-COOH)]G[Pro(trans-4-NH2)][Trp(4-Cl)(βS-Me)]D[dNMeA]G[Bip(4'-COOH)][1Nal]L[Aib]G)", "SMILES": "CC(C)C[C@@H]1NC(=O)[C@H](Cc2cccc3ccccc23)NC(=O)[C@H](Cc2ccc(-c3ccc(C(=O)O)cc3)cc2)NC(=O)CNC(=O)[C@@H](C)N(C)C(=O)[C@H](CC(=O)O)NC(=O)[C@H]([C@@H](C)c2c[nH]c3cccc(Cl)c23)NC(=O)[C@@H]2C[C@@H](N)CN2C(=O)CNC(=O)[C@H](Cc2ccc(C(=O)O)cc2)NC(=O)[C@H](Cc2c[nH]c3ccccc23)NC(=O)[C@H](Cc2ccc(-c3ccc(C(=O)O)cc3)cc2)NC(=O)CNC(=O)C(C)(C)NC1=O"}, "B2": {"name": "SEQ ID NO: 28 (peptide)", "peptide": "cyclo([Bip(4'-COOH)]W[Phe(4-COOH)]G[Pro(trans-4-NH2)][1Nal(3S-Me)]D[dNMeA]G[Bip(4'-COOH)][Ala(pyrimidin-5-yl)][Dap][dA][hTyr])", "SMILES": "C[C@@H]1C(=O)NCC(=O)N[C@@H](Cc2ccc(-c3ccc(C(=O)O)cc3)cc2)C(=O)N[C@@H](Cc2cncnc2)C(=O)N[C@@H](CN)C(=O)N[C@H](C)C(=O)N[C@@H](CCc2ccc(O)cc2)C(=O)N[C@@H](Cc2ccc(-c3ccc(C(=O)O)cc3)cc2)C(=O)N[C@@H](Cc2c[nH]c3ccccc23)C(=O)N[C@@H](Cc2ccc(C(=O)O)cc2)C(=O)NCC(=O)N2C[C@H](N)C[C@H]2C(=O)N[C@@H]([C@@H](C)c2cccc3ccccc23)C(=O)N[C@@H](CC(=O)O)C(=O)N1C"}, "B3": {"name": "SEQ ID NO: 32 (peptide)", "peptide": "cyclo([Bip(4'-COOH)]W[Phe(4-COOH)]G[Pro(trans-4-NH2)][1Nal(3S-Me)]D[dNMeA]G[Bip(4'-COOH)]WG[dDab][hTyr])", "SMILES": "C[C@@H]1C(=O)NCC(=O)N[C@@H](Cc2ccc(-c3ccc(C(=O)O)cc3)cc2)C(=O)N[C@@H](Cc2c[nH]c3ccccc23)C(=O)NCC(=O)N[C@H](CCN)C(=O)N[C@@H](CCc2ccc(O)cc2)C(=O)N[C@@H](Cc2ccc(-c3ccc(C(=O)O)cc3)cc2)C(=O)N[C@@H](Cc2c[nH]c3ccccc23)C(=O)N[C@@H](Cc2ccc(C(=O)O)cc2)C(=O)NCC(=O)N2C[C@H](N)C[C@H]2C(=O)N[C@@H]([C@@H](C)c2cccc3ccccc23)C(=O)N[C@@H](CC(=O)O)C(=O)N1C"}, "B4": {"name": "SEQ ID NO: 36 (peptide)", "peptide": "cyclo([Bip(4'-COOH)]W[Phe(4-COOH)]G[Pro(trans-4-NH2)][Trp(4-Cl)(βS-Me)]D[dNMeA]G[Bip(4'-COOH)][1Nal]L[Aib][hTyr])", "SMILES": "CC(C)C[C@@H]1NC(=O)[C@H](Cc2cccc3ccccc23)NC(=O)[C@H](Cc2ccc(-c3ccc(C(=O)O)cc3)cc2)NC(=O)CNC(=O)[C@@H](C)N(C)C(=O)[C@H](CC(=O)O)NC(=O)[C@H]([C@@H](C)c2c[nH]c3cccc(Cl)c23)NC(=O)[C@@H]2C[C@@H](N)CN2C(=O)CNC(=O)[C@H](Cc2ccc(C(=O)O)cc2)NC(=O)[C@H](Cc2c[nH]c3ccccc23)NC(=O)[C@H](Cc2ccc(-c3ccc(C(=O)O)cc3)cc2)NC(=O)[C@H](CCc2ccc(O)cc2)NC(=O)C(C)(C)NC1=O"}, "B5": {"name": "SEQ ID NO: 29 (peptide)", "peptide": "cyclo([Bip(4'-COOH)]W[Phe(4-COOH)]G[Pro(trans-4-NH2)][1Nal(3S-Me)]D[dNMeA]G[Bip(4'-COOH)][Trp(7-aza)][Dap][dA][hTyr])", "SMILES": "C[C@@H]1C(=O)NCC(=O)N[C@@H](Cc2ccc(-c3ccc(C(=O)O)cc3)cc2)C(=O)N[C@@H](Cc2c[nH]c3ncccc23)C(=O)N[C@@H](CN)C(=O)N[C@H](C)C(=O)N[C@@H](CCc2ccc(O)cc2)C(=O)N[C@@H](Cc2ccc(-c3ccc(C(=O)O)cc3)cc2)C(=O)N[C@@H](Cc2c[nH]c3ccccc23)C(=O)N[C@@H](Cc2ccc(C(=O)O)cc2)C(=O)NCC(=O)N2C[C@H](N)C[C@H]2C(=O)N[C@@H]([C@@H](C)c2cccc3ccccc23)C(=O)N[C@@H](CC(=O)O)C(=O)N1C"}, "B6": {"name": "SEQ ID NO: 34 (peptide)", "peptide": "cyclo([Bip(4'-COOH)]W[Phe(4-COOH)]G[Pro(trans-4-NH2)][Trp(4-Cl)(βS-Me)]D[dNMeA]G[Bip(4'-COOH)][1Nal][Dap][Aib][h3Pal(5-CN)])", "SMILES": "C[C@@H]1C(=O)NCC(=O)N[C@@H](Cc2ccc(-c3ccc(C(=O)O)cc3)cc2)C(=O)N[C@@H](Cc2cccc3ccccc23)C(=O)N[C@@H](CN)C(=O)NC(C)(C)C(=O)N[C@@H](CCc2cncc(C#N)c2)C(=O)N[C@@H](Cc2ccc(-c3ccc(C(=O)O)cc3)cc2)C(=O)N[C@@H](Cc2c[nH]c3ccccc23)C(=O)N[C@@H](Cc2ccc(C(=O)O)cc2)C(=O)NCC(=O)N2C[C@H](N)C[C@H]2C(=O)N[C@@H]([C@@H](C)c2c[nH]c3cccc(Cl)c23)C(=O)N[C@@H](CC(=O)O)C(=O)N1C"}, "B7": {"name": "SEQ ID NO: 31 (peptide)", "peptide": "cyclo([Bip(4'-COOH)]W[Phe(4-COOH)]G[Pro(trans-4-NH2)][1Nal(3S-Me)]D[dNMeA]G[Bip(4'-COOH)]W[Dap][dA][hTyr])", "SMILES": "C[C@@H]1C(=O)NCC(=O)N[C@@H](Cc2ccc(-c3ccc(C(=O)O)cc3)cc2)C(=O)N[C@@H](Cc2c[nH]c3ccccc23)C(=O)N[C@@H](CN)C(=O)N[C@H](C)C(=O)N[C@@H](CCc2ccc(O)cc2)C(=O)N[C@@H](Cc2ccc(-c3ccc(C(=O)O)cc3)cc2)C(=O)N[C@@H](Cc2c[nH]c3ccccc23)C(=O)N[C@@H](Cc2ccc(C(=O)O)cc2)C(=O)NCC(=O)N2C[C@H](N)C[C@H]2C(=O)N[C@@H]([C@@H](C)c2cccc3ccccc23)C(=O)N[C@@H](CC(=O)O)C(=O)N1C"}, "B8": {"name": "SEQ ID NO: 27 (peptide)", "peptide": "cyclo([Bip(4'-COOH)]W[Phe(4-COOH)]G[Pro(trans-4-NH2)][1Nal(3S-Me)]D[dNMeA]G[Bip(4'-COOH)][Ala(pyrimidin-5-yl)][Dap][dA][h3Pal(5-CN)])", "SMILES": "C[C@@H]1C(=O)NCC(=O)N[C@@H](Cc2ccc(-c3ccc(C(=O)O)cc3)cc2)C(=O)N[C@@H](Cc2cncnc2)C(=O)N[C@@H](CN)C(=O)N[C@H](C)C(=O)N[C@@H](CCc2cncc(C#N)c2)C(=O)N[C@@H](Cc2ccc(-c3ccc(C(=O)O)cc3)cc2)C(=O)N[C@@H](Cc2c[nH]c3ccccc23)C(=O)N[C@@H](Cc2ccc(C(=O)O)cc2)C(=O)NCC(=O)N2C[C@H](N)C[C@H]2C(=O)N[C@@H]([C@@H](C)c2cccc3ccccc23)C(=O)N[C@@H](CC(=O)O)C(=O)N1C"}, "B9": {"name": "SEQ ID NO: 3 (peptide)", "peptide": "cyclo([3AzaPhe4AcPip]W[Phe(4-COOH)]G[Pro(trans-4-NH2)][1Nal(3S-Me)]D[dNMeA]G[Bip(4'-COOH)]KL[dA][hTyr])", "SMILES": "CC(=O)N1CCN(c2ccc(C[C@@H]3NC(=O)[C@H](CCc4ccc(O)cc4)NC(=O)[C@@H](C)NC(=O)[C@H](CC(C)C)NC(=O)[C@H](CCCCN)NC(=O)[C@H](Cc4ccc(-c5ccc(C(=O)O)cc5)cc4)NC(=O)CNC(=O)[C@@H](C)N(C)C(=O)[C@H](CC(=O)O)NC(=O)[C@H]([C@@H](C)c4cccc5ccccc45)NC(=O)[C@@H]4C[C@@H](N)CN4C(=O)CNC(=O)[C@H](Cc4ccc(C(=O)O)cc4)NC(=O)[C@H](Cc4c[nH]c5ccccc45)NC3=O)cn2)CC1"}, "B10": {"name": "SEQ ID NO: 30 (peptide)", "peptide": "cyclo([Bip(4'-COOH)]W[Phe(4-COOH)]G[Pro(trans-4-NH2)][1Nal(3S-Me)]D[dNMeA]G[Bip(4'-COOH)]W[Dap][dA][h3Pal(5-CN)])", "SMILES": "C[C@@H]1C(=O)NCC(=O)N[C@@H](Cc2ccc(-c3ccc(C(=O)O)cc3)cc2)C(=O)N[C@@H](Cc2c[nH]c3ccccc23)C(=O)N[C@@H](CN)C(=O)N[C@H](C)C(=O)N[C@@H](CCc2cncc(C#N)c2)C(=O)N[C@@H](Cc2ccc(-c3ccc(C(=O)O)cc3)cc2)C(=O)N[C@@H](Cc2c[nH]c3ccccc23)C(=O)N[C@@H](Cc2ccc(C(=O)O)cc2)C(=O)NCC(=O)N2C[C@H](N)C[C@H]2C(=O)N[C@@H]([C@@H](C)c2cccc3ccccc23)C(=O)N[C@@H](CC(=O)O)C(=O)N1C"}, "B11": {"name": "SEQ ID NO: 26 (peptide)", "peptide": "cyclo([Bip(4'-COOH)]W[Phe(4-COOH)]G[Pro(trans-4-NH2)][1Nal(3S-Me)]D[dNMeA]G[Bip(4'-COOH)]KL[dS][hTyr])", "SMILES": "CC(C)C[C@@H]1NC(=O)[C@H](CCCCN)NC(=O)[C@H](Cc2ccc(-c3ccc(C(=O)O)cc3)cc2)NC(=O)CNC(=O)[C@@H](C)N(C)C(=O)[C@H](CC(=O)O)NC(=O)[C@H]([C@@H](C)c2cccc3ccccc23)NC(=O)[C@@H]2C[C@@H](N)CN2C(=O)CNC(=O)[C@H](Cc2ccc(C(=O)O)cc2)NC(=O)[C@H](Cc2c[nH]c3ccccc23)NC(=O)[C@H](Cc2ccc(-c3ccc(C(=O)O)cc3)cc2)NC(=O)[C@H](CCc2ccc(O)cc2)NC(=O)[C@@H](CO)NC1=O"}, "B12": {"name": "SEQ ID NO: 33 (peptide)", "peptide": "cyclo([Bip(4'-COOH)]W[Phe(4-COOH)]G[Pro(trans-4-NH2)][Trp(4-Cl)(βS-Me)]A[dNMeA]G[Bip(4'-COOH)][1Nal]L[Aib]G)", "SMILES": "CC(C)C[C@@H]1NC(=O)[C@H](Cc2cccc3ccccc23)NC(=O)[C@H](Cc2ccc(-c3ccc(C(=O)O)cc3)cc2)NC(=O)CNC(=O)[C@@H](C)N(C)C(=O)[C@H](C)NC(=O)[C@H]([C@@H](C)c2c[nH]c3cccc(Cl)c23)NC(=O)[C@@H]2C[C@@H](N)CN2C(=O)CNC(=O)[C@H](Cc2ccc(C(=O)O)cc2)NC(=O)[C@H](Cc2c[nH]c3ccccc23)NC(=O)[C@H](Cc2ccc(-c3ccc(C(=O)O)cc3)cc2)NC(=O)CNC(=O)C(C)(C)NC1=O"}},
  "note": "*1 amine or outer side, *2 acyl side, *3 side chain or, on linkers, in order; H or OH if unused. [ ]: non-standard residue; d: D form. 3AzaPhe4AcPip = (S)-3-(6-(4-acetylpiperazin-1-yl)pyridin-3-yl)-2-aminopropanoic acid, CC(=O)N1CCN(c2ccc(C[C@H](N[*:1])C(=O)[*:2])cn2)CC1; Trp(4-Cl)(βS-Me) = C[C@@H](c1c[nH]c2cccc(Cl)c12)[C@H](N)C(=O)O; Pro(trans-4-NH2) = O=C([C@@H]1C[C@@H](N[*:3])CN1[*:1])[*:2]; Bip(4'-COOH) = N[C@@H](Cc1ccc(-c2ccc(C(=O)O)cc2)cc1)C(=O)O; 1Nal(3S-Me) = C[C@@H](c1cccc2ccccc12)[C@H](N)C(=O)O; Ala(pyrimidin-5-yl) = N[C@@H](Cc1cncnc1)C(=O)O; Phe(4-COOH) = N[C@@H](Cc1ccc(C(=O)O)cc1)C(=O)O; Trp(7-aza) = N[C@@H](Cc1c[nH]c2ncccc12)C(=O)O; h3Pal(5-CN) = N#Cc1cncc(CC[C@H](N)C(=O)O)c1; 1Nal = N[C@@H](Cc1cccc2ccccc12)C(=O)O; hTyr = N[C@@H](CCc1ccc(O)cc1)C(=O)O; dDab = NCC[C@@H](N)C(=O)O; dNMeA = CN[C@H](C)C(=O)O; Dap = NC[C@H](N)C(=O)O; Aib = CC(C)(N)C(=O)O",
  "data": [
    {"biological_target": "Recombinant human IL-1β (BioLegend 579404) (human, UniProt P01584 117-269)", "experiment": "cell-based or functional assay", "units": {"MRC5 IC50": "nM"}, "values": [
      {"binder": "B1", "MRC5 IC50": 0.16},
      {"binder": "B2", "MRC5 IC50": 0.0393},
      {"binder": "B3", "MRC5 IC50": 0.033},
      {"binder": "B4", "MRC5 IC50": 0.0522},
      {"binder": "B5", "MRC5 IC50": 0.0205},
      {"binder": "B6", "MRC5 IC50": 0.0755},
      {"binder": "B7", "MRC5 IC50": 0.0208},
      {"binder": "B8", "MRC5 IC50": 0.017},
      {"binder": "B9", "MRC5 IC50": 0.0599},
      {"binder": "B10", "MRC5 IC50": 0.0185},
      {"binder": "B11", "MRC5 IC50": 0.0688},
      {"binder": "B12", "MRC5 IC50": 0.544}
    ]}
  ]
}
